Tests used:
α-synuclein (human) [1] = molecular target: α-synuclein (human) (UniProt P37840)
α-synuclein (human) [2] = molecular target: α-synuclein (human) (UniProt P37840); remark: listed apart in the source
α-synuclein (human) [3] = molecular target: α-synuclein (human) (UniProt P37840); remark: listed apart in the source
α-synuclein (human) [4] = molecular target: α-synuclein (human) (UniProt P37840); remark: listed apart in the source

apparent solubility of α-syn (free monomer in supernatant by HPLC-MS) with 0.12 and 2 μM JB6, pH 4.5 (α-synuclein (human) [1]): 2.3 μM
half-time of loss of free α-syn monomer by 1D 1H NMR, 20 μM α-syn with 250 nM JB6 (4.9 h without JB6), pH 5.5, 37 °C (α-synuclein (human) [2]): 35 h
apparent solubility of α-syn (free monomer in supernatant by HPLC-MS) with 7.8 to 62.5 nM JB6, pH 5.5 (0.8 μM for α-syn alone; 125 nM JB6 not at equilibrium, 16 μM) (α-synuclein (human) [3]): 7.7 μM
apparent solubility of α-syn (free monomer by 1D 1H NMR at about 300 h) with 250 nM JB6, pH 5.5 (α-synuclein (human) [4]): 0.47 μM
Substance: DNAJB6b (from UniProt O75190-2 1-241) (natural protein)

From paper PMC12100659
